Assay [1] has as its target T1, Fc receptor FcγRIIIa_V158 (UniProt P08637 17-208). Put plainly: BLI (Fortebio Octet); sentence on Table 2, differs from the table's 6.12E-07. The procedure: (§1) 5 μg/mL FcγRIIIa_V158 was immobilized on the HIS1K sensor for 120 s. The sensor was equilibrated in a buffer for 60 s, and the binding of the immobilized FcγRIIIa_V158 on the sensor to the antibodies at concentrations of 31.25-500 nM (serial two-fold dilution) was determined for 60 s. The antibody was dissociated in the buffer for 60 s. The sensor was refreshed 4 times in 10 mM glycine pH 1.5, each for 5 s. The temperature was 30° C. and the frequency was 0.3 Hz. The data were analyzed by 1:1 model fitting to obtain affinity constants.

The target of assay [2] is Fc receptor FcγRIIIa_F158 (UniProt P08637 17-208). Kind of assay: BLI (Fortebio Octet), FcγRIIIa_F158 immobilised on HIS1K sensor, antibody in solution at 31.25-500 nM. On the procedure: 5 μg/mL FcγRIIIa_F158 was immobilized on the HIS1K sensor for 120 s. The sensor was equilibrated in a buffer for 60 s, and the binding of the immobilized FcγRIIIa_F158 on the sensor to the antibodies at concentrations of 31.25-500 nM (serial two-fold dilution) was determined for 60 s. The antibody was dissociated in the buffer for 60 s. The sensor was refreshed 4 times in 10 mM glycine pH 1.5, each for 5 s. The temperature was 30° C. and the frequency was 0.3 Hz. The data were analyzed by 1:1 model fitting to obtain affinity constants.

The target of assay [3] is T1, Fc receptor FcγRIIIa_V158. Put plainly: BLI (Fortebio Octet); FcγRIIIa_V158 on HIS1K sensor, antibody 31.25-500 nM; 1:1 fit. The procedure:
as §1

The target of the next assay is Serum complement C1q (UniProt P02745 23-245; P02746 28-253; P02747 29-245). Put plainly: BLI (Fortebio Octet), antibody immobilised on FAB2G sensor, C1q in solution at 1.25-20 nM. On the procedure: 50 μg/mL antibody was immobilized on the FAB2G sensor at an immobilization height of about 2.0 nm. The sensor was equilibrated in a buffer for 60 s for blocking, and the binding of the immobilized antibody on the sensor to the antigen C1q at concentrations of 1.25-20 nM (serial two-fold dilution) was determined for 60 s. The antigen and antibody were dissociated in the buffer for 60 s. The sensor was refreshed 4 times in 10 mM glycine pH 1.7, each for 5 s. The shaking speed of the sample plate was 1000 rpm, the temperature was 30° C. and the frequency was 0.6 Hz. The data were analyzed by 1:1 model fitting to obtain affinity constants. The data acquisition software was Fortebio Data Acquisition 7.0, and the data analysis software was Fortebio Data Analysis 7.0.

A further assay deals with T2, Fc receptor FcγRIIb (human, UniProt P31994 43-217).
T2 construct: also called CD32b; hFcγRIIb-his; not shown: his tag named in 'hFcγRIIb-his'
T2 sequence (looked up): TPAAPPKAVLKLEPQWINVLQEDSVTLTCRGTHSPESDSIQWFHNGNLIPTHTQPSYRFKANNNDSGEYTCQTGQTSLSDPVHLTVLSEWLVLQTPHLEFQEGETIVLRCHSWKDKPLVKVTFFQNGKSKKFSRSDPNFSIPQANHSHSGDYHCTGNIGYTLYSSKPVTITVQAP
Kind of assay: BLI (Fortebio Octet), hFcγRIIb-his immobilised on NTA sensor, antibody in solution at 12.5-200 nM. On the procedure:
5 μg/mL hFcγRIIb-his was immobilized on the NTA sensor at an immobilization height of about 1.0 nm. The sensor was equilibrated in a buffer of 0.02% Tween-20, 0.02% casein and 0.1% BSA in PBS, pH 7.4 for 300 s of blocking, and the binding of the immobilized hFcγRIIb-his on the sensor to the antibodies at concentrations of 12.5-200 nM (serial two-fold dilution) was determined for 60 s. The antibody was dissociated in the buffer for 60 s. The sensor was refreshed in 10 mM glycine pH 1.7 and […] nickel sulfate. The temperature was 30° C. and the frequency was 0.6 Hz. The data were analyzed by 1:1 model fitting to obtain affinity constants.

T1 sequence (P08637 17-208 F176V limits assumed): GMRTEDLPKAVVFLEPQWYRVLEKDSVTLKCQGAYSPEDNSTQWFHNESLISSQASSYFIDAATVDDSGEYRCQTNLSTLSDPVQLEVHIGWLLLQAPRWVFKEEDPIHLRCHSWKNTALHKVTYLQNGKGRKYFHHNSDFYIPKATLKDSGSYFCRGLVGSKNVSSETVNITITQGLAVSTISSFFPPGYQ
Chain of Fc receptor FcγRIIIa_F158 (P08637 17-208 limits assumed): as the sequence (P08637 17-208 F176V limits assumed) above, with V160F counted along it
Chain of Serum complement C1q (P02745 23-245 limits assumed, chain 1 of 3): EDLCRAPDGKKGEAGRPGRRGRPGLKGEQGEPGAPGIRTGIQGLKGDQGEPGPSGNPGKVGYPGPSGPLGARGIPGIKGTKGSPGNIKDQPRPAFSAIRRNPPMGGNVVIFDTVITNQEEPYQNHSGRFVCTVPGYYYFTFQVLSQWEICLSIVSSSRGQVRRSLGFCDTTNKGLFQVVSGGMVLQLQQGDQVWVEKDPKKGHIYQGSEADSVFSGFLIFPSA
Chain of Serum complement C1q (P02746 28-253 limits assumed, chain 2 of 3): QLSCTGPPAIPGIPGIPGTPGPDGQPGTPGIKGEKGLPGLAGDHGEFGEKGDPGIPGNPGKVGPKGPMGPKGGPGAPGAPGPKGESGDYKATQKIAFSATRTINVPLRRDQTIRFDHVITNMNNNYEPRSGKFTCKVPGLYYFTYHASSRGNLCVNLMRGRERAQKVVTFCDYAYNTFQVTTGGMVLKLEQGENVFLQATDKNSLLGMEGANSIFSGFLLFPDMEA
Chain of Serum complement C1q (P02747 29-245 limits assumed, chain 3 of 3): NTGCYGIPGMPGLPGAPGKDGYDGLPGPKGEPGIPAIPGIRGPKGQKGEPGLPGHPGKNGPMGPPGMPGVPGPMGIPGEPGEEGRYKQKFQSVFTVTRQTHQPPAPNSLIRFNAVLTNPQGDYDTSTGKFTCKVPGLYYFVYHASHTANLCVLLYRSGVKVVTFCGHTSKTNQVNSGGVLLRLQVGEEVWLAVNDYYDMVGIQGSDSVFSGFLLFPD

B1: 14C12H1L1(hG1DM) (antibody, human IgG1, kappa, L234A L235A)
heavy: not shown
light: DIQMTQSPSSMSASVGDRVTFTCRASQDINTYLSWFQQKPGKSPKTLIYRANRLVSGVPSRFSGSGSGQDYTLTISSLQPEDMATYYCLQYDEFPLTFGAGTKLELKRTVAAPSVFIFPPSDEQLKSGTASVVCLLNNFYPREAKVQWKVDNALQSGNSQESVTEQDSKDSTYSLSSTLTLSKADYEKHKVYACEVTHQGLSSPVTKSFNRGEC
notes: Humanized anti-PD-1 IgG1 mutant of 14C12H1L1(hG1WT) with L234A and L235A in the heavy chain
In the case of B1, the Kd in assay [1] was 621 nM; in assay [3] it was 612 nM. Moreover, the binding result in assay [2] is on record as “no binding (tested: 500 nM)”; with Serum complement C1q it was “no binding (tested: 20 nM)”; in the assay with Fc receptor FcγRIIb, “no binding (tested: 200 nM)”. The same molecule had a koff in assay [3] of 0.0824 s⁻¹. Besides, the kon in assay [3] was 135000 M⁻¹ s⁻¹.

Source of the values: patent publication US20220267444A1 (CTTQ AKESO SHANGHAI BIOMED TECH, published 2022).
